B1: truncated atP5CS2 protein consisting of residues 1-290 (atP5CS2-GK) (domain or fragment, Arabidopsis thaliana, UniProt P54888 1-290, looked up)
chain: MTEIDRSRAFAKDVKRIVVKVGTAVVTGKGGRLALGRLGAICEQLAELNSDGFEVILVSSGAVGLGRQRLRYRQLVNSSFADLQKPQMELDGKACAGVGQSSLMAYYETMFDQLDVTVAQMLVTDSSFRDKDFRKQLSETVKAMLRMRVIPVFNENDAISTRRAPYKDSTGIFWDNDSLAALLSLELKADLLILLSDVEGLYTGPPSDSTSKLIHTFIKEKHQDEITFGEKSKLGRGGMTAKVKAAVNAAYGGVPVIITSGYAAENISKVLRGLRVGTLFHQDAHLWAPV
B2: Arabidopsis thaliana Delta-1-pyrroline-5-carboxylate synthase 2 (atP5CS2), wild type (enzyme, UniProt P54888 1-726, looked up)
chain: MTEIDRSRAFAKDVKRIVVKVGTAVVTGKGGRLALGRLGAICEQLAELNSDGFEVILVSSGAVGLGRQRLRYRQLVNSSFADLQKPQMELDGKACAGVGQSSLMAYYETMFDQLDVTVAQMLVTDSSFRDKDFRKQLSETVKAMLRMRVIPVFNENDAISTRRAPYKDSTGIFWDNDSLAALLSLELKADLLILLSDVEGLYTGPPSDSTSKLIHTFIKEKHQDEITFGEKSKLGRGGMTAKVKAAVNAAYGGVPVIITSGYAAENISKVLRGLRVGTLFHQDAHLWAPVVDTTSRDMAVAARESSRKLQALSSEDRKQILHDIANALEVNEKTIKAENDLDVAAAQEAGYEESLVARLVMKPGKISSLAASVRQLAEMEDPIGRVLKKTQVADDLILEKTSSPIGVLLIVFESRPDALVQIASLAIRSGNGLLLKGGKEARRSNAILHKVITDAIPETVGGKLIGLVTSREEIPDLLKLDDVIDLVIPRGSNKLVSQIKNSTKIPVLGHADGICHVYVDKSGKLDMAKRIVSDAKLDYPAACNAMETLLVHKDLEQNGFLDDLIYVLQTKGVTLYGGPRASAKLNIPETKSFHHEYSSKACTVEIVEDVYGAIDHIHQHGSAHTDCIVTEDSEVAEIFLRQVDSAAVFHNASTRFSDGFRFGLGAEVGISTSRIHARGPVGVEGLLTTRWIMRGKGQVVDGDNGIVYTHKDLPVLQRTEAVENGI

Columns and labels:
negative-stain EM = biological target: the molecule itself; test: negative-stain EM
cryo-EM structure = biological target: the molecule itself; test: cryo-EM structure

| Protein | binding result (negative-stain EM) | stoichiometry N (cryo-EM structure) |
| --- | --- | --- |
| B1 | binds |  |
| B2 |  | 4 |

Source: paper doi:10.1101/2023.09.07.556688 (bioRxiv, 2023)
